The source of these data is US20200024330A1.

A value given as a limit tells only on which side of the number the result lay.

Experiment in all cases: cell-based or functional assay
In experiment [1] the target is HIV-1 Env of isolate REJ04541 (HIV-1).
The target in experiment [2] is HIV-1 Env of isolate TR0.11 (HIV-1).
The target in experiment [3] is HIV-1 Env of isolate Du172 (HIV-1).
Experiment [4] has as its target HIV-1 92TH021 Env (clade AE pseudovirus) (HIV-1).
Experiment [5] addresses HIV-1 MGRM-C-027 Env (clade C pseudovirus) (HIV-1).
The target in experiment [6] is HIV-1 92BR020 Env (clade B pseudovirus) (HIV-1).
Experiment [7] addresses HIV-1 93IN905 Env (clade C pseudovirus) (HIV-1).
Experiment [8] addresses HIV-1 92UG024 Env (clade D pseudovirus) (HIV-1).
In experiment [9] the target is HIV-1 APV13 Env (clade B pseudovirus) (HIV-1).
Experiment [10] deals with HIV-1 APV6 Env (clade B pseudovirus) (HIV-1).
Experiment [11] deals with HIV-1 MGRM-A-010 Env (pseudovirus) (HIV-1).
In experiment [12] the target is HIV-1 Env of isolate 93IN905 (clade C) (HIV-1).
The target in experiment [13] is HIV-1 Env of isolate MGRM-C-027 (clade C) (HIV-1).
Experiment [14] concerns the target HIV-1 Env of isolate MGRM-A-010 (clade A) (HIV-1).
Experiment [15] concerns the target HIV-1 Env of isolate 94UG103 (clade A) (HIV-1).
In experiment [16] the target is HIV-1 Env of isolate 92BR020 (clade B) (HIV-1).
For experiment [17], the target named is HIV-1 Env of isolate JRCSF (clade B) (HIV-1) (UniProt P20871).
In experiment [18] the target is HIV-1 JR-CSF Env K305A (HIV-1 JR-CSF) (UniProt P20871).
Experiment [19] has as its target HIV-1 Env of isolate SF162 (subtype B) (HIV-1) (UniProt P19550).
Experiment [20] concerns the target HIV-1 Env of isolate MGRM-F1-021 (clade F), on pseudovirus (HIV-1).
Experiment [21] concerns the target HIV-1 envelope glycoprotein (Env) of isolate JRFL, on pseudovirus (HIV-1).
Experiment [22] has as its target HIV-1 Env of isolate MGRM-D-002 (subtype D), on pseudovirus (HIV-1).
Experiment [23] concerns the target HIV-1 Env of isolate 93TH305 (HIV-1).
For experiment [24], the target named is HIV-1 Env of isolate MGRM-D-004 (subtype D), on pseudovirus (HIV-1).
Experiment [25] addresses HIV-1 Env of isolate MGRM-AE-003 (pseudovirus) (HIV-1).
In experiment [26] the target is HIV-1 Env of isolate 92TH021 (pseudovirus) (HIV-1).
For experiment [27], the target named is HIV-1 Env of isolate 92WR024 (pseudovirus) (HIV-1).
Experiment [28] concerns the target HIV-1 Env of isolate MG RM-A-006 (pseudovirus) (HIV-1).
Experiment [29] deals with HIV-1 Env of isolate 92RW008 (clade A), on pseudovirus (HIV-1).
For experiment [30], the target named is HIV-1 Env of isolate MGRM-AE-004 (pseudovirus) (HIV-1).
Experiment [31] concerns the target HIV-1 Env of isolate 92UG031 (pseudovirus) (HIV-1).
Experiment [32] concerns the target HIV-1 Env of isolate MGRM-D-008 (subtype D), on pseudovirus (HIV-1).
The target in experiment [33] is HIV-1 Env of isolate 92UG037 (pseudovirus) (HIV-1).
Experiment [34] deals with HIV-1 Env of isolate 92WR021 (pseudovirus) (HIV-1).
The target in experiment [35] is HIV-1 Env of isolate 92RW009 (clade A), on pseudovirus (HIV-1).
Experiment [36] deals with HIV-1 Env of isolate 92UG046 (subtype D), on pseudovirus (HIV-1).

1443_C16 (PG16) (TCN-116) (antibody), sequence (VH): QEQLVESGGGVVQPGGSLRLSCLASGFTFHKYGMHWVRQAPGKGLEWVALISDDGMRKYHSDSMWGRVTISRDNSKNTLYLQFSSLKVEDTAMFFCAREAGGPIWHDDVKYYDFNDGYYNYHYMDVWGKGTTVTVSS
1443_C16 (PG16) (TCN-116) (antibody), sequence (VL): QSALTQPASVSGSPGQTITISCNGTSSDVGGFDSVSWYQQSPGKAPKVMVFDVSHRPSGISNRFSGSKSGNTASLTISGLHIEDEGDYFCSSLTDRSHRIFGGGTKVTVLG

With 1443_C16 (PG16) (TCN-116) (antibody), the IC50, pseudovirus neutralization (TZM-bl) in [1] is less than 0.01 mg/L; in experiment [2], 3.61 mg/L; in experiment [3], less than 0.01 mg/L.

Take 4877_D15 (PGT-122) (antibody): the Neutralization by PGT-122, IC50 in experiment [4] was greater than 10 mg/L; in experiment [5], 0.0388 mg/L; in experiment [6], 0.0337 mg/L; in experiment [7] it was 0.0138 mg/L; in [8] it was greater than 10 mg/L; in experiment [9] it was 0.992 mg/L. In [10], this substance yielded a Neutralization by PGT-122, IC50 of 0.0851 mg/L. The Neutralization by PGT-122, IC80 was greater than 10 mg/L in experiment [4]; 0.499 mg/L in [5]; 0.0929 mg/L in experiment [6]; 0.0505 mg/L in experiment [7]; greater than 10 mg/L in experiment [8]; 4.14 mg/L in [9]. In experiment [10], this substance had a Neutralization by PGT-122, IC80 of 0.351 mg/L. For the same substance, the Neutralization by PGT-122, IC90 is greater than 10 mg/L in experiment [4]; greater than 10 mg/L in experiment [5]; 0.168 mg/L in experiment [6]; 0.108 mg/L in experiment [7]; greater than 10 mg/L in [8]; 8.6 mg/L in experiment [9]. The same substance showed a Neutralization by PGT-122, IC90 in experiment [10] of 0.779 mg/L. The Neutralization by PGT-122, IC95 was greater than 10 mg/L in experiment [4]; greater than 10 mg/L in experiment [5]; 0.289 mg/L in experiment [6]; 0.217 mg/L in experiment [7]; greater than 10 mg/L in [8]; greater than 10 mg/L in experiment [9]. This substance registered a Neutralization by PGT-122, IC95 in experiment [10] of 1.55 mg/L.

In the case of 5141_B17 (PGT-126) (antibody), in experiment [11], the IC50 came to 0.0033 mg/L, the IC80 came out at 0.0137 mg/L, the IC90 worked out at 0.0316 mg/L and the IC95 was 0.0687 mg/L.

For 5147_N06 (PGT-130) (antibody), the neutralization IC50 stood at 0.0182 mg/L in experiment [12]; 0.0052 mg/L in experiment [13]; 0.0054 mg/L in experiment [14]; 0.635 mg/L in [15]; 1.12 mg/L in experiment [16]; 0.0089 mg/L in experiment [17]. The neutralization IC80 in experiment [12] was 0.272 mg/L; in [13], 0.0318 mg/L; in experiment [14], 0.0251 mg/L; in [15] it was greater than 10 mg/L; in experiment [16], greater than 10 mg/L; in [17], 0.0317 mg/L. Also, the neutralization IC90 in [12] is 1.31 mg/L; in experiment [13], 0.106 mg/L; in [14], 0.0643 mg/L; in experiment [15], greater than 10 mg/L; in experiment [16], greater than 10 mg/L; in experiment [17], 0.0669 mg/L. Also, the neutralization IC95 in experiment [12] was 5.48 mg/L; in [13], 0.464 mg/L; in experiment [14], 0.164 mg/L; in [15], greater than 10 mg/L; in experiment [16] it was greater than 10 mg/L; in experiment [17], 0.134 mg/L.

The substance PGT-121 (antibody) displayed a Fold IC50 increase relative to wild-type in [18] of 1.9 fold.

Consider PGV04 (antibody), for which the IC50 (µg/mL), pseudovirus neutralization in experiment [19] was found to be 0.0028 µg/mL. Also, the IC50 (µg/mL), single-round pseudovirus neutralization in experiment [20] was 0.031 µg/mL. Moreover, in experiment [21], the IC50, pseudovirus neutralization stood at 0.032 mg/L.

For VRC01 (antibody), the IC50, pseudovirus neutralization worked out at 0.252 mg/L in experiment [22], 1.25 mg/L in experiment [24], 0.854 mg/L in experiment [32] and 12.7 mg/L in [36]. The substance further displayed an IC50 in experiment [23] of 0.243 mg/L. For the same substance, the IC50 (µg/mL), pseudovirus neutralization in [25] came out at 0.685 µg/mL; in experiment [26], 0.616 µg/mL; in experiment [27], 0.327 µg/mL; in experiment [28], 0.521 µg/mL; in [30], 0.187 µg/mL; in experiment [31] it was 0.469 µg/mL. For the same substance, the IC50 (µg/mL), pseudovirus neutralization in experiment [33] came to 0.245 µg/mL; in experiment [34] it was 0.066 µg/mL. Besides, the values for the IC50, single-round pseudovirus neutralization in [29] and in [35] were 0.037 mg/L and 0.187 mg/L, respectively.

As usually defined, the IC50 is the midpoint of a concentration-inhibition curve. Low readings indicate inhibition by little substance, high ones a need for much substance. One may read the IC80 as the point of the concentration-response curve where the effect stands at 80%. Lower therefore signals an effect from little substance. A word on the IC90: it is the concentration needed for an effect of 90%. A higher IC90 goes with a need for much substance. As usually defined, the IC95 is the concentration needed for an effect of 95%. A high value points to a need for much substance.
